The values below come from publication PMC9520404, “G-quadruplexes formation within the promoter of TEAD4 oncogene and their interaction with Vimentin”.

Data set [1] concerns the target T1, Vimentin (human, UniProt P08670 1-466). The data set can be described thus: EMSA; DNA annealed in 150 mM KCl; 8 uM Vimentin, 500 nM DNA; 5 mM Tris pH 8.4, 150 mM KCl, 1 h at room temperature; 1.5% agarose in 1x TBE + 10 mM KCl, run at 4 C. The settings on record: protein: recombinant; parallel G4-repeat after annealing in 150 mM KCl. A general note: A gel shift assay detects complexes by their altered migration in electrophoresis.

The target of data set [2] is T1, Vimentin. The experiment in a line: EMSA; DNA annealed in 150 mM KCl; no free DNA left; 8 uM Vimentin, 500 nM DNA; 5 mM Tris pH 8.4, 150 mM KCl, 1 h at room temperature; 1.5% agarose in 1x TBE + 10 mM KCl, run at 4 C. To be noted: protein: recombinant; parallel G4-repeat.
Data set [3] has as its target T1, Vimentin. The experiment in a line: EMSA; 150 mM KCl; 8 uM Vimentin, 500 nM DNA; 5 mM Tris pH 8.4, 150 mM KCl, 1 h at room temperature; 1.5% agarose in 1x TBE + 10 mM KCl, run at 4 C. The settings on record: protein: recombinant.

T1 sequence (P08670 whole entry): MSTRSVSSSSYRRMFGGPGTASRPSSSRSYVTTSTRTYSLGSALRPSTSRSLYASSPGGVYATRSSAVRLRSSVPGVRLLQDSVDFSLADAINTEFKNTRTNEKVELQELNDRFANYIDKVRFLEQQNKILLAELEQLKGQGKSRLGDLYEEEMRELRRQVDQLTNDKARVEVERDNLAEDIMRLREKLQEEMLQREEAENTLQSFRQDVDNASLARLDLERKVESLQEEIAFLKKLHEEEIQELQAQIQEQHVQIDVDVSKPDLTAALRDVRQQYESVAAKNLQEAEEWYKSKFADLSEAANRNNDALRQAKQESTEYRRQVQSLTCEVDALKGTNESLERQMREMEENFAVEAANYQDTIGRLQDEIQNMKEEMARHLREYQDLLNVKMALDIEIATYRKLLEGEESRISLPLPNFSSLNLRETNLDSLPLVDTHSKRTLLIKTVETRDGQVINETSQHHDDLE

As to CGGGCGGGCGAGGGGCCGGGCCGCCGGGGCGGGGCGGGGCCGGGC (structured_DNA) [TEAD4-full], in data set [1], the binding result is recorded as “binds”. On to CGGGCGGGCGAGGGGCCGGGTTGTTGGGGCGGGGCGGGGCCGGGC (structured_DNA) [TEAD4-full-2TT], for which, in data set [2], the binding result is “binds”. As to CGGGGCGGGGCGGGGCCGGGC (structured_DNA) [TEAD4-far], the binding result in data set [3] (G4, parallel and antiparallel components) is reported as “no binding”. On to CGGGCGGGCGAGGGGCCGGGC (structured_DNA) [TEAD4-near], for which the binding result in data set [3] (intramolecular G4, mainly antiparallel) was “no binding”.
